Assay results from US12466853B2, “Selective targeting of apoptosis proteins by structurally-stabilized and/or cysteine-reactive NOXA peptides” (priority 2017, dated 2025).
“Also recorded” adds a separate entry of the source.

Key:
U937 cells [1] = assay: LDH release assay, U937 cells; format: cell-based, human; conditions: 30 min and 4 hr, listed as D-NA-NOXA SAHB-15 R31E
Procedure: After overnight incubation for A375P cells, or immediately upon plating for U937 cells, the cells were treated with the indicated concentrations of D-NA-NOXA SAHBs in DMEM or RPMI supplemented with 5% FBS for the indicated time period (30 min, 4 h). After plate centrifugation at 1,500 rpm (Thermo Scientific Sorvall Four-Place Swinging Bucket Rotor [75006445]; 478×g) for 5 min at 4° C., LDH release was quantified by transferring 100 μL of cell-culture medium to a clear plate (Corning), incubating with 100 μL of LDH reagent (Roche) for 30 min while shaking, and then measuring absorbance at 490 nm on a microplate reader (Spectramax M5, Molecular Devices).

MCL-1 = target: T1, MCL-1 (Homo sapiens, UniProt Q07820); assay: MCL-1 engagement in A375P lysates (streptavidin pulldown, MCL-1 western); format: binding; conditions: biotinylated SAHB
T1 construct: endogenous protein in lysates from the A375P melanoma cell line; endogenous in cells; host or cells: A375P melanoma cells (lysate)
Procedure: (§1) Cultured A375P and U937 cells were trypsinized or harvested, respectively, washed with PBS, and lysed by incubating with 1% CHAPS lysis buffer (1% CHAPS, 150 mM NaCl, 50 mM Tris pH 7.4, 100 μM DTT). The protein concentrations of the soluble fraction were measured using a BCA kit according to the manufacturer's instructions (Thermo Scientific). Lysate samples (1 mg) were incubated with vehicle or C-terminally biotinylated NOXA SAHBs (30 μM) overnight in 1% CHAPS lysis buffer at 4° C. Biotin capture was accomplished by incubating the mixture with high-capacity SA agarose (Thermo Scientific) for 2 hours at 4° C., followed by centrifugation and washing the pelleted beads three times with lysis buffer (1 mL). Bead-bound proteins were eluted by boiling in 10% SDS containing 10 mg/mL biotin for 10 minutes and then subjected to electrophoresis and western blotting using BFL-1 (Abcam, #125259) and MCL-1 (Rockland #600-401-394S) antibodies.

native BFL-1 = target: T2, native BFL-1 (Homo sapiens, UniProt Q16548); assay: BFL-1 targeting in U937 lysates (streptavidin pulldown, BFL-1 western); format: binding; conditions: biotinylated SAHB
T2 construct: endogenous in cells; host or cells: A375P melanoma cells (A10); U937 AML cells (A12), lysates
T2 sequence (Q16548 1-175): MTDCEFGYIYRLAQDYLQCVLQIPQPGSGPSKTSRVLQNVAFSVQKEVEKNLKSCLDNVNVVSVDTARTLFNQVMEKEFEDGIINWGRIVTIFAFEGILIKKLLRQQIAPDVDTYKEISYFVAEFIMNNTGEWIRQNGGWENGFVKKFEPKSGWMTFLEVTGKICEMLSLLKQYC
From the text: We confirmed that both of our lead constructs could covalently crosslink to full-length BFL-1 protein, which bears a C-terminal helix that could potentially compete with D-NA-NOXA SAHBs for interaction at the canonical BH3-binding pocket in cancer cells. We generated recombinant full-length BFL-1 and expressed HA-tagged full-length BFL-1 in 293T cells, and then conducted crosslinking analyses in vitro and in treated cells, respectively.
as §1

FLAG-MCL-1 / tBID = target: T3, FLAG-MCL-1 / tBID (Homo sapiens, UniProt Q07820); assay: MCL-1/tBID complex disruption in 293T lysates; format: binding; conditions: FLAG immunoprecipitation
T3 construct: expressed in transfected cells; host or cells: 293T (lysate)
T3 sequence (Q07820 whole entry): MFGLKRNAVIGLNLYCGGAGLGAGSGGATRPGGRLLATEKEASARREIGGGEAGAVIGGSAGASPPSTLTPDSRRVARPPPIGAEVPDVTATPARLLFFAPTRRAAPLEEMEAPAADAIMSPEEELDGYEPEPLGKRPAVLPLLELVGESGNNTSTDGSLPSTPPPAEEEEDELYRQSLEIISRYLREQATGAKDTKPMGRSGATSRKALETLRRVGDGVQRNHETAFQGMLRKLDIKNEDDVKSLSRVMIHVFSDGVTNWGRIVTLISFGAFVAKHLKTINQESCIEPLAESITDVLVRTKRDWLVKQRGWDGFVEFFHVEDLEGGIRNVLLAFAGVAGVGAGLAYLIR
Procedure: To evaluate the capacity of biotinylated SAHBs to compete with tBID for interactions with BFL-1 and MCL-1, 293T cells were transfected with either HA-BFL-1ΔC C4S/C19S or FLAG-MCL-1 in the p3XFLAG-CMV-10 vector (Sigma) as above. After 24 hr, cells were trypsinized, washed with PBS, lysed in 1% CHAPS buffer, and the supernatant collected for protein concentration determination by BCA kit. Lysate samples (0.5 mg) were incubated with 0.25 μM recombinant tBID (R&D Systems) and 5 μM biotinylated NOXA SAHBs for 6 h at RT. The mixtures were then subjected to HA or FLAG immunoprecipitation, followed by western analysis using 1:1000 dilutions of HA (Sigma Aldrich, #12CA5), FLAG (Sigma-Aldrich, F7425), and BID (Santa Cruz sc-11423) antibodies.

BCL-XLΔC / FITC-BID BH3 = target: T4, BCL-XLΔC / FITC-BID BH3 (Homo sapiens, UniProt Q07817); assay: Competitive fluorescence polarization binding assay, BCL-XLΔC
T4 construct: Recombinant anti-apoptotic BCL-XLΔC (aa 1-212) and MCL-1ΔNΔC (aa 172-329); GST (N, cleaved yes); made in house; host or cells: Escherichia coli BL21(DE3)
T4 sequence (Q07817 1-212, stated change not applied): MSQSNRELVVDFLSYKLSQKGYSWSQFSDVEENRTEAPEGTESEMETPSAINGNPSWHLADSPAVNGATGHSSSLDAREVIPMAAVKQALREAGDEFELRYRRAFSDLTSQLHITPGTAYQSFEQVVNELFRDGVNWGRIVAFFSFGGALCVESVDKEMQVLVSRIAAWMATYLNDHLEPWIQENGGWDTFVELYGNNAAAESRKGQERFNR
Procedure: Fluorescence polarization (FP) assays were performed as previously described (Pitter et al., 2008 (supra)). Briefly, direct binding curves were first generated by FITC-BID BH3 (25 nM) with serial dilutions of anti-apoptotic protein, and FP was measured at 5 min on a SpectraMax M5 microplate reader (Molecular Devices). For competition assays, a serial dilution of acetylated or warhead-bearing NOXA SAHB was added to the indicated recombinant protein at ˜EC75 concentration, as determined by the direct binding assay. FITC-BID BH3 (25 nM) was then added and fluorescence polarization was measured at equilibrium. IC50 values were calculated by nonlinear regression analysis of competitive binding curves using PRISM software (GraphPad).

U937 cells [2] = assay: Cell viability (CellTiter-Glo) and CalcuSyn synergy, U937; conditions: U937 cells (BFL-1-dependent)
Procedure: (§2) Cell viability and caspase-3/7 activation was measured using CellTiter-Glo and Caspase-Glo 3/7 chemiluminescence reagents (Promega), respectively, and luminescence was detected by a Spectramax M5 microplate reader. Synergy of drug interactions was calculated using the CalcuSyn software (Biosoft).

MV4;11 cells = assay: Cell viability (CellTiter-Glo) and CalcuSyn synergy, MV4;11; conditions: MV4;11 cells (not dependent on BFL-1, dependent on MCL-1)
Procedure: as §2

KG-1 cells = assay: Cell viability (CellTiter-Glo) and CalcuSyn synergy, KG-1; format: cell-based, human; conditions: KG-1 AML cells
Procedure: U937, MV4;11, OCI-AML-3, Jurkat, and KG-1 cells cultured in RPMI containing 10% FBS and penicillin-streptomycin were plated in 96-well plates (5×10^3 cells per well) and, after overnight incubation, treated with the indicated concentrations of D-NA-NOXA SAHB and/or AZD0156, Ku-60019, Ku-55933, AZD7762, olaparib, or S63845 (all from Selleck Chemicals) in RPMI supplemented with 5% FBS for the indicated durations. Cell viability and caspase-3/7 activation was measured using CellTiter-Glo and Caspase-Glo 3/7 chemiluminescence reagents (Promega), respectively, and luminescence was detected by a Spectramax M5 microplate reader. Synergy of drug interactions was calculated using the CalcuSyn software (Biosoft).

Substance: JAT8LREFGDXLNFRQ [D-NA-NOXA-15 R31E]
- LDH release (non-specific cell membrane-lytic activity) (U937 cells [1]): no LDH release; also recorded: no non-specific cell membrane-lytic activity
- MCL-1 engagement (MCL-1): approximately equivalent binding to MCL-1
- targeting of native BFL-1 (native BFL-1): more effective binder of native BFL-1 protein between the two constructs
- dissociation of FLAG-MCL-1/tBID interaction (FLAG-MCL-1 / tBID): neither D-NA- nor Ac-NOXA15 R31E is able to dissociate the interaction
- competition for FITC-BID BH3 binding to BCL-XLΔC (BCL-XLΔC / FITC-BID BH3): neither Ac- nor D-NA-NOXA-15 R31E is able to compete
- cytotoxicity, single agent (U937 cells [2]; listed as D-NA-NOXA SAHB-15 R31E): responsive
- cytotoxicity, single agent (U937 cells [2]; listed as NOXA-15 R31E SAHB): selective cytotoxicity
- cytotoxicity, single agent (MV4;11 cells): essentially insensitive
- cytotoxicity, single agent (KG-1 cells): dose-responsive cytotoxicity
